Values belong to the binder of their own block, whether it stands above or below them.
Biological target: T1, Flag3-SNAP33-6His (Arabidopsis thaliana, UniProt Q9S7P9 1-300)
T1 construct: Qbc-SNARE SNAP33, Arabidopsis thaliana, At5G61210; not shown: Flag3, N-terminal, kept; 6His, C-terminal, kept
T1 sequence (looked up): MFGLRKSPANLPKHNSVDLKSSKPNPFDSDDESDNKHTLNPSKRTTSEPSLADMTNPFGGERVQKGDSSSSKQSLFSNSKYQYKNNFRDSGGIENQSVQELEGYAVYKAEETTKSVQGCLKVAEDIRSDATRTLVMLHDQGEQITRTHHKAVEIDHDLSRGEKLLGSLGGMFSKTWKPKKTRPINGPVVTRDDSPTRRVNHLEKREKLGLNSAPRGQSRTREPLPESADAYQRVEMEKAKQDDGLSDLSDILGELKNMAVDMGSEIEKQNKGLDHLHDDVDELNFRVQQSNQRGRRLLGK
Test: pull-down; KC1^67–91-Flag3-StrepII or KAT1^1–63-Flag6-StrepII immobilised on Strep-Tactin resin; one prey at a time in 3-fold excess; overnight at 4°C; SDS-PAGE, Coomassie
Conditions: both partners purified

- binding result: binds
B1: KAT1^1–63-Flag6-StrepII (domain or fragment, Arabidopsis thaliana, UniProt Q39128 1-63, looked up)
chain: MSISWTRNFFERFCVEEYNIDTIKQSSFLSADLLPSLGARINQSTKLRKHIISPFNPRYRAWE
notes: KAT1 K+ channel, Arabidopsis thaliana, At5g46240, N-terminal cytosolic domain residues 1-63; also called KAT1^1–63 peptide; KAT1^1–63-6flag-StrepII; not shown: Flag6, C-terminal, kept; StrepII, C-terminal, kept

- binding result: binds
B2: KC1^67–91-Flag3-StrepII (domain or fragment, Arabidopsis thaliana, UniProt P92960 67-91, looked up)
chain: IEDDNPSSKPFIVLHFDRRYRLWEL
notes: KC1 K+ channel subunit, Arabidopsis thaliana, At4g32650, N-terminal cytosolic domain residues 67-91; also called KC1^67–91 peptide; KC1^67–91-3flag-StrepII; not shown: Flag3, C-terminal, kept; StrepII, C-terminal, kept
